{"source": "paper PMC8564334", "tested_on": "Histone H3;Histone H4 (His6-TEV) (Drosophila melanogaster;Drosophila melanogaster)", "experiment": "restriction enzyme protection", "conditions": "purified tetrasome, Wheat germ cell-free co-expression with NAP1 at 26 C for 6 h, TALON purification in 10 mM Tris/HCl pH 7.4, 40 mM NaCl (elution 250 mM imidazole), 6% native …"}
{"substance": "601_185bp", "values": [{"measurement": "binding signal (% protection from PmlI)", "setting": "37 C", "value": 81}, {"measurement": "binding signal (% protection from BsiWI)", "setting": "55 C", "value": 93.6}]}
